# T1: CasEnd-21 (synthetic construct)
# T1 chain: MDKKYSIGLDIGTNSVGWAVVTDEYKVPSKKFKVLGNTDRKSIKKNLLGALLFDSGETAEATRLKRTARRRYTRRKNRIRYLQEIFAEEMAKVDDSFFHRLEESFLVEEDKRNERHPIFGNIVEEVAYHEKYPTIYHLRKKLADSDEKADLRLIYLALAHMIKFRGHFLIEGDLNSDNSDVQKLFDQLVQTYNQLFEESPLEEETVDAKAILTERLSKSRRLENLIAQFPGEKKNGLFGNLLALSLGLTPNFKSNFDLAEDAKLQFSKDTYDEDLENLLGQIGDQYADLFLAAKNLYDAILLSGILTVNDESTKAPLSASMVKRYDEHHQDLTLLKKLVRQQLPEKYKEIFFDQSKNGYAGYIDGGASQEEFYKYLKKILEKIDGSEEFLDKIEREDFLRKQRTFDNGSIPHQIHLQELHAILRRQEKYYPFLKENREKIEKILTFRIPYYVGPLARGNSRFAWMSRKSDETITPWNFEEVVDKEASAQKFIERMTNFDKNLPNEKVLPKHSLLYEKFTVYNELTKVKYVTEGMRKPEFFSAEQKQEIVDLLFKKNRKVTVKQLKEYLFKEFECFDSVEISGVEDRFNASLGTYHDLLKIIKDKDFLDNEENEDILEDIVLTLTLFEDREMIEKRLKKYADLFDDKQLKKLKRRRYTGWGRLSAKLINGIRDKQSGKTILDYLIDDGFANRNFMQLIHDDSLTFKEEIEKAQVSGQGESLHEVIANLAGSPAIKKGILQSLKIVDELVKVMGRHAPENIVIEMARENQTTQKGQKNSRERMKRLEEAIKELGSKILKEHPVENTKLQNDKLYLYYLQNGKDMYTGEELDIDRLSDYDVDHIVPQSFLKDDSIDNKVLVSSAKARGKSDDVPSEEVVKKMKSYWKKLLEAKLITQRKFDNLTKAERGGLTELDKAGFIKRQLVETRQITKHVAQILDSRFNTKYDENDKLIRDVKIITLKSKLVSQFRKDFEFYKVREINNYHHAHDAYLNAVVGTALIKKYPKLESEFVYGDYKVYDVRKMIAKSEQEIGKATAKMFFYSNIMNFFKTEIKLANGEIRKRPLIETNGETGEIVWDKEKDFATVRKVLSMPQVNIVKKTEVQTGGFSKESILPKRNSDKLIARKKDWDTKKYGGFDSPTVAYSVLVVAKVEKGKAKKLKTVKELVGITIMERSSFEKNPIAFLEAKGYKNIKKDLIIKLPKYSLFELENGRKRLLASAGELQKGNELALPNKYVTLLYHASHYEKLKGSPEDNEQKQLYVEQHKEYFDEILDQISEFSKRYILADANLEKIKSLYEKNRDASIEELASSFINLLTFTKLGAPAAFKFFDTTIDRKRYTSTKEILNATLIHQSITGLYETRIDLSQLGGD
# B1: BFP-to-GFP template RNA ; BFP reporter protospacer (ssRNA ; dsDNA)
# RNA: GCCGAAGCACUGCACGCCGUGUUUUAGAGCUAGAAAUAGCAAGUUAAAAUAAGGCUAGUCCGUUAUCAACUUGAAAAAGUGGCACCGAGUCGGUGCACCCUGACGUACGGCGUGCAGUGCUU
# DNA 1: GCCGAAGCACTGCACGCCGT
# DNA 2: ACGGCGTGCAGTGCTTCGGC
# Molecular target: T1, CasEnd-21
# Assay: cell_activity; +++; HEK293T; PAM not stated
# Procedure, shortened: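 Editing activity was scored as the fraction of GFP+ cells on day 4 by flow cytometry. BFP-expressing HEK293T cells (250,000) received by nucleofection 200 ng plasmid for the RT-Cas fusion protein and 200 ng template RNA plasmid designed to convert BFP to GFP.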
binder,measurement,value
B1,activity,≥ 100 % of reference

# From US20250092426, “CAS ENDONUCLEASES AND RELATED METHODS” (Flagship Pioneering Innovations VII, LLC, published 2025)
